Earlier results in publication PMC3416746.
pKd: −log10 of the molar value.

What was measured:
[1] = target: mDia1 N-terminus (Mus musculus) (UniProt O08808)
[2] = target: mDia1 DID DID (Mus musculus) (UniProt O08808)

Substance | pKd [1] | pKd [2]
RhoA (from UniProt P61586) | 8.22 | –
mDia1 DAD DAD (from UniProt O08808) | – | 6.82
